The labels stand for the following.
B1: iolS (Bacillus subtilis subsp. subtilis str. 168) (protein)
chain: MKKAKLGKSDLQVFPIGLGTNAVGGHNLYPNLNEETGKELVREAIRNGVTMLDTAYIYGIGRSEELIGEVLREFNREDVVIATKAAHRKQGNDFVFDNSPDFLKKSVDESLKRLNTDYIDLFYIHFPDEHTPKDEAVNALNEMKKAGKIRSIGVSNFSLEQLKEANKDGLVDVLQGEYNLLNREAEKTFFPYTKEHNISFIPYFPLVSGLLAGKYTEDTTFPEGDLRNEQEHFKGERFKENIRKVNKLAPIAEKHNVDIPHIVLAWYLARPEIDILIPGAKRADQLIDNIKTADVTLSQEDISFIDKLFA
notes: pET28a, His-tagged, expressed in E. coli BL21(DE3), Ni-NTA purified
B2: iolS (Bacillus subtilis subsp. subtilis str. 168; F126A/N21A) (protein)
chain: MKKAKLGKSDLQVFPIGLGTAAVGGHNLYPNLNEETGKELVREAIRNGVTMLDTAYIYGIGRSEELIGEVLREFNREDVVIATKAAHRKQGNDFVFDNSPDFLKKSVDESLKRLNTDYIDLFYIHAPDEHTPKDEAVNALNEMKKAGKIRSIGVSNFSLEQLKEANKDGLVDVLQGEYNLLNREAEKTFFPYTKEHNISFIPYFPLVSGLLAGKYTEDTTFPEGDLRNEQEHFKGERFKENIRKVNKLAPIAEKHNVDIPHIVLAWYLARPEIDILIPGAKRADQLIDNIKTADVTLSQEDISFIDKLFA
notes: as for B1
B3: iolS (Bacillus subtilis subsp. subtilis str. 168; I57F) (protein)
chain: MKKAKLGKSDLQVFPIGLGTNAVGGHNLYPNLNEETGKELVREAIRNGVTMLDTAYFYGIGRSEELIGEVLREFNREDVVIATKAAHRKQGNDFVFDNSPDFLKKSVDESLKRLNTDYIDLFYIHFPDEHTPKDEAVNALNEMKKAGKIRSIGVSNFSLEQLKEANKDGLVDVLQGEYNLLNREAEKTFFPYTKEHNISFIPYFPLVSGLLAGKYTEDTTFPEGDLRNEQEHFKGERFKENIRKVNKLAPIAEKHNVDIPHIVLAWYLARPEIDILIPGAKRADQLIDNIKTADVTLSQEDISFIDKLFA
notes: as for B1
B4: iolS (Bacillus subtilis subsp. subtilis str. 168; F126L) (protein)
chain: MKKAKLGKSDLQVFPIGLGTNAVGGHNLYPNLNEETGKELVREAIRNGVTMLDTAYIYGIGRSEELIGEVLREFNREDVVIATKAAHRKQGNDFVFDNSPDFLKKSVDESLKRLNTDYIDLFYIHLPDEHTPKDEAVNALNEMKKAGKIRSIGVSNFSLEQLKEANKDGLVDVLQGEYNLLNREAEKTFFPYTKEHNISFIPYFPLVSGLLAGKYTEDTTFPEGDLRNEQEHFKGERFKENIRKVNKLAPIAEKHNVDIPHIVLAWYLARPEIDILIPGAKRADQLIDNIKTADVTLSQEDISFIDKLFA
notes: as for B1
B5: iolS (Bacillus subtilis subsp. subtilis str. 168; N21A) (protein)
chain: MKKAKLGKSDLQVFPIGLGTAAVGGHNLYPNLNEETGKELVREAIRNGVTMLDTAYIYGIGRSEELIGEVLREFNREDVVIATKAAHRKQGNDFVFDNSPDFLKKSVDESLKRLNTDYIDLFYIHFPDEHTPKDEAVNALNEMKKAGKIRSIGVSNFSLEQLKEANKDGLVDVLQGEYNLLNREAEKTFFPYTKEHNISFIPYFPLVSGLLAGKYTEDTTFPEGDLRNEQEHFKGERFKENIRKVNKLAPIAEKHNVDIPHIVLAWYLARPEIDILIPGAKRADQLIDNIKTADVTLSQEDISFIDKLFA
notes: as for B1
B6: iolS (Bacillus subtilis subsp. subtilis str. 168; F126L/I57F) (protein)
chain: MKKAKLGKSDLQVFPIGLGTNAVGGHNLYPNLNEETGKELVREAIRNGVTMLDTAYFYGIGRSEELIGEVLREFNREDVVIATKAAHRKQGNDFVFDNSPDFLKKSVDESLKRLNTDYIDLFYIHLPDEHTPKDEAVNALNEMKKAGKIRSIGVSNFSLEQLKEANKDGLVDVLQGEYNLLNREAEKTFFPYTKEHNISFIPYFPLVSGLLAGKYTEDTTFPEGDLRNEQEHFKGERFKENIRKVNKLAPIAEKHNVDIPHIVLAWYLARPEIDILIPGAKRADQLIDNIKTADVTLSQEDISFIDKLFA
notes: as for B1

Substrate in this data set: O=C(Nc1ccccc1)C(=O)c1ccccc1
Kind of data set: initial velocity by HPLC of product, nonlinear Michaelis-Menten fit. The format is biochemical, Bacillus subtilis. The note with it: NAD(P)H cofactor, potassium phosphate 100 mM pH 7.0, 30 °C. The source says: initial velocity by HPLC of product, nonlinear Michaelis-Menten fit on iolS
With B1, the Michaelis-Menten constant (Km) (commonly the concentration of substrate that gives half-maximal velocity) worked out at 1810 ± 130 µM; the catalytic constant (kcat) (in general, the maximal rate divided by the concentration of active sites) amounted to 3.53 ± 0.12 s⁻¹; the kcat/Km (as a rule, the turnover number divided by the Michaelis constant) was determined as 1950 M⁻¹ s⁻¹.

B2: the Km worked out at 1650 ± 120 µM, the catalytic constant (kcat) stood at 6.4 ± 0.25 s⁻¹ and the specificity constant (kcat/Km) came out at 3880 M⁻¹ s⁻¹.

As for B3, the Km was 1720 ± 130 µM, the kcat came out at 3.96 ± 0.23 s⁻¹ and the catalytic efficiency (kcat/Km) was 2320 M⁻¹ s⁻¹.

Take B4: the Michaelis constant (Km) worked out at 1550 ± 220 µM, the turnover number (kcat) amounted to 3.81 ± 0.13 s⁻¹ and the kcat/Km turned out to be 2450 M⁻¹ s⁻¹.

For B5, the Michaelis-Menten constant (Km) worked out at 1160 ± 160 µM, the turnover number (kcat) was 4.1 ± 0.12 s⁻¹ and the kcat/Km was 3530 M⁻¹ s⁻¹.

B6: the Michaelis-Menten constant (Km) is 1710 ± 110 µM, the kcat was found to be 4.32 ± 0.14 s⁻¹ and the specificity constant (kcat/Km) amounted to 2510 M⁻¹ s⁻¹.

Values taken from publication PMC10577934, “Semi-rational engineering an aldo–keto reductase for stereocomplementary reduction of α-keto amide compounds” (Microbial Cell Factories, 2023).
